Residue numbers refer to the chain shown, from its start. In names and notes the source's numbering stands.
B1: FasL (protein, UniProt P48023 130-281, looked up)
Tumor necrosis factor ligand …: QIGHPSPPPEKKELRKVAHLTGKSNSRSMPLEWEDTYGIVLLSGVKYKKGGLVINETGLYFVYSKVYFRGQSCNNLPLSHKVYMRNSKYPQDLVMMEGKMMSYCTTGQMWARSSYLGAVFNLTSADHLYVNVSELSLVNFEESQTFFGLYKL
notes: wild-type FasL ligand used as comparator
B2: FasL (P206R) (protein, UniProt P48023 130-281, looked up, variant P206R)
Tumor necrosis factor ligand …: B1 Tumor necrosis factor ligand … with P77R
B3: conjugate: mutated FasL (P206R) conjugated to mouse monoclonal anti-CD20 antibody with SMCC (conjugate, UniProt P48023 130-281, looked up, variant P206R)
Tumor necrosis factor ligand …: B1 Tumor necrosis factor ligand … with P77R
modifications: conjugated via SMCC to mouse anti-CD20 antibody

These molecules were tested on Burkitt lymphoma cells (assay: Dose response of FasL ligands on Burkitt lymphoma cells). Settings: dose response over 1 μM to 1 nM, 96 well plate.
Assay type: cell-based
Method: Dose response over a range of 1 μM to 1 nM is determined for each of the ligands.

Molecule	rank order of effectiveness
B1	rank order of effectiveness is wild-type, conjugate and mutated FasL
B2	rank order of effectiveness is wild-type, conjugate and mutated FasL
B3	rank order of effectiveness is wild-type, conjugate and mutated FasL

— patent publication US20080166806A1, “Attenuated Effector Ligand” (priority 2007, published 2008)
